Laboratory results taken from US20100021473A1 (DOMANTIS, published 2010).
Changes are numbered by the printed parent chain.

T1: NCA on H647 cells (UniProt P40199 35-320, limits assumed)
T1 construct: whole, on cells; Its identity is an inference
T1 sequence (looked up): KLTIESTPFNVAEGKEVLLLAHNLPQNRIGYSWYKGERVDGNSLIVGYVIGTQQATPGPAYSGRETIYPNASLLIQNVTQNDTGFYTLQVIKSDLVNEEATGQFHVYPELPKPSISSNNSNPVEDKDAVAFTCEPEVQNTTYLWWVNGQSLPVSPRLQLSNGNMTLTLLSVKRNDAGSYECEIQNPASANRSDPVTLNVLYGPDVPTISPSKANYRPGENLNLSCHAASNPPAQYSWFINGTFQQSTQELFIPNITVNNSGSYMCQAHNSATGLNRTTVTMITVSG

B1: DOM13-93 (other)
chain: DIQMTQSPSSLSASVGDRVTITCRASQDIGNMLAWYQQKPGKAPKPLIYYASYLQSGVPSRFSGSGSGTDFTLTISSLQPEDFATYYCQQMRDYPVTFGQGTKVEIKR
notes: Anti-CEA dAb monomer
B2: DOM13-95 (other)
chain: B1 chain with T5S, M91L, R92G, D93A, Y94K, V96H
notes: Anti-CEA dAb monomer
B3: DOM13-58 (other)
chain: B1 chain with D28G, M32S, A34R, P46L, A51S, Y53H, M91I, D93T, Y94K, V96F
notes: Anti-CEA dAb monomer
B4: DOM13-65 (other)
chain: DIQMTQSPSSLSASVGDRVTITCRASQSIGMLLSWYQQKPGKAPKLLIYAVSRLQSGVPSRFSGSGSGTDFTLTISSLQPEDYATYYCQQMQRPPITFGQGTKVEIKR
notes: Anti-CEA dAb monomer
B5: DOM13-64 (other)
chain: B4 chain with M31T, S34N, V51S, Y83F, Q92N, P94V
notes: Anti-CEA dAb monomer
B6: DOM13-57 (other)
chain: DIQMTQSPSSLSASVGDRVTITCRASQGIMYHLRWYQQKPGKAPRLLIYHGSTLQSGVPARFSGSGSGTDFTLTISSLQPEDFATYYCQQTWNAPLTFGQGTKVEIKR
notes: Anti-CEA dAb monomer
B7: DOM11-32 (other)
chain: DIQMTQSPSSLSASVGDRVTITCRASQWIGDSLVWYQQKPGKAPKLLIYFGSILQSGVPSRFSGSGSGTDFTLTISSLQPEDFATYYCQQHKTSPSTFGQGTKVEIKR
notes: Anti-CD38 dAb monomer
B8: DOM11-37 (other)
chain: DIQMTQSPSSLSAFVGDRVTITCRASQDIEGQLRWYQQKPGKAPKLLIYFGSLLQSGVPSRFSGSGSGTVYTLTISSLQPEDFATYYCQQSHLFPATFGQGTKVEIKR
notes: Anti-CD38 dAb monomer
B9: DOM11-24 (other)
chain: DIQMTQSPSSLSASVGDRVTITCRASQEIHDYLSWYQQKPGKAPKLLIYLSSRLQSGVPSRFSGSGSGTDFTLTISSLQPEDFATYYCQQYHKGPYTFGQGTKVEIKR
notes: Anti-CD38 dAb monomer
B10: DOM11-39 (other)
chain: DIQMTQSPSSLSASVGDRVTITCRASQPIDGNLRWYQQKPGKAPRLLIYFTSILQSGVPSRFSGSGSGTDFTLTISSLQPEDFATYYCQQHRHWPATFGQGTKVEIKR
B11: DOM11-38 (other)
chain: DIQVTQSPSSLSASVGDRVTITCRASQEISSCLNWYQQKPGKAPKLLIYCTSVLQSGVPSRFSGSGSGTDFTLTISSLQPEDFATYYCQQRFGNPLTFGQGTKVEIKR
notes: Anti-CD38 dAb monomer
B12: DOM11-30-2 (other)
chain: DIQMTQSPSSLSASVGDRVTITCRTSQKIENDLAWYQQKPGKAPKLLIYYTSILQSGVPSRFSGSGSGTDFTLTISSLQPEDFATYYCQQRRYVPATFGQGTKVEIKR
B13: DOM11-30-1 (other)
chain: B12 chain with T25A, Q27L, V94A
B14: DOM11-30-3 (other)
chain: B12 chain with T25A, K42N, Q55H
B15: DOM11-3-1 (other)
chain: DIQMTQSPSSLSASVGDRVTITCRASHNIDSRLSWYQQKPGKAPKLLIYRASVLQSGVPSRFRGSGSGTDFTLTISSLQPEDFATYYCQQWDMFPLSFGQGTKVEIKR
B16: DOM11-3-2 (other)
chain: B15 chain with H27Q, A51T, R63S, S97M

biological target: T1, NCA on H647 cells; test: FACS on H647 cells (CEA-/NCA+)
Experimental: (§1) All dAbs were analysed by FACS on antigen positive and negative cell lines using the following method.
(§2) The determination of cell binding by FACS was carried out as follows: cells were centrifuged at 250 g for 5 minutes and the growth medium was removed. The cells were resuspended in FACS incubation buffer at 4° C. at a density of 2×10⁶ cells/ml. The cells were blocked by incubating for 15 minutes at 4° C. in FACS incubation buffer. Fifty microliters of 2× stock of primary antibody (anti-CD38 FITC, anti-CD138 FITC or mIgG1 FITC conjugated isotype control (all BD Biosciences) was added; or dAb was added to cells in FACS incubation buffer and incubated for 30-60 minutes at 4° C. The cells were then washed once in FACS incubation buffer. One hundred microliters of secondary antibody (rabbit anti-Vk) was added to cells in FACS incubation buffer and incubated 30-60 minutes at 4° C. The cells were washed once in FACS incubation buffer. Then 100 ul of 1× tertiary antibody was added to the cells in FACS incubation buffer and incubated for 30-60 mins at 4° C. (for dAbs the tertiary antibody is anti-rabbit FITC (Sigma)). The cells were washed twice in FACS incubation buffer. The cell pellet was resuspend in 200 ul FACS incubation buffer+viable cell marker (BD Viaprobe). The cells were then analyzed by flow cytometry.

binding result	Binder
no binding	B1
no binding	B2
no binding	B3
no binding	B4
no binding	B5
no binding	B6

biological target: T2, CD38 on cells (UniProt P28907 1-300); test: FACS on RPMI cells (CD38+/138+)
T2 construct: whole, on cells; Endogenous CD38 on cell lines used in FACS or microscopy; also called DOM11; T10
Experimental: as §1, §2

binding result	Binder
binds	B7
binds	B8
binds	B9
binds	B10
binds	B11

biological target: T3, CD38 immobilised on Biacore CM5 chip (UniProt P28907 43-300, limits assumed); test: Biacore, CD38 immobilised
T3 construct: also called DOM11
Experimental: Anti-CD38, anti-CEA and anti-CD56 dAbs that were identified as FACS positive clones were in addition analysed by Biacore using the following procedure. The CM5 chip surface was activated by flushing 1:1 EDC/NHS (0.4M1-ethyl-3-(3-dimenthylaminopropyl)-carbodiimide in water; 0.1 M N-hydroxysuccinimide in water) at a flow rate of 5 uL/min for 10 minute contact time. CD38 was immobilised at 500 nM in Acetate buffer pH4 at 5 uL/min this was repeated until the RUs reached between 500 and 1000 (low density). CEA and CD56 were coupled in acetate buffer pH 4.5. Any excess reactive groups were deactivated by running 1M ethanolamine-HCl over the CM5 chip (again 5 uL/min for 7 mins). The affinities of the anti-CD38, anti-CEA and anti-CD56 dAbs were measured on the biacore as described above.
Affinity maturation libraries were created for the anti-CD38 dAbs DOM11-3 and DOM11-30 by error prone PCR. […] Initial screening was carried out by BIAcore (as described previously) and subsequently by FACS.

Kd [nM]	Binder
62 to 76	B12
19	B13
86 to 93	B14
62	B15
130 to 160	B16
